± gives the standard error.
Assay: background-corrected fluorescence of 3'-dye-labeled ssDNA relative to brightest sequence (3'-GCGCG) (fraction); higher = brighter dye fluorescence (less quenching)
In short: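 Arrays of single-stranded DNA, with a 3' Cy3 or Cy5 dye beside each of 1024 permuted pentamers, were built on glass slides through light-directed phosphoramidite synthesis. They were washed for 2 h at r.t. in acetonitrile and scanned at 532 or 635 nm, once before and once after overnight ethylenediamine/ethanol deprotection. Fluorescence is reported after subtracting unlabeled-oligo background and normalizing to the brightest sequence. Averages cover 10 features per array and at least 3 syntheses.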

Row | Sequence | background-corrected fluorescence (dye: Cy3 (3' terminal)) | background-corrected fluorescence (dye: Cy5 (3' terminal))
1 | TTTTTGCATCAGCAGCATGATTTTTTTTTTTTTTTTGTTC [CTTGT] | 0.433 ± 0.0082 | 0.31 ± 0.025
2 | TTTTTGCAGCATCATGCTGATTTTTTTTTTTTTTTTTGAC [CAGTT] | 0.461 ± 0.024 | 0.354 ± 0.04
3 | TTTTTTGAGCATGCGCATGCTTTTTTTTTTTTTTTCTATA [ATATC] | 0.527 ± 0.018 | 0.411 ± 0.023
4 | TTTTTGCATGCTGATGATCATTTTTTTTTTTTTTTTACCG [GCCAT] | 0.55 ± 0.026 | 0.439 ± 0.027
5 | TTTTTGCATGCTGCGCATCATTTTTTTTTTTTTTTTAATG [GTAAT] | 0.513 ± 0.02 | 0.363 ± 0.023
6 | TTTTTTGCTGCTGATCATCATTTTTTTTTTTTTTTAACGG [GGCAA] | 0.652 ± 0.019 | 0.552 ± 0.04
7 | TTTTTTGCGCAGCAGCAGCATTTTTTTTTTTTTTTATTTT | 0.488 ± 0.022 | 0.381 ± 0.02
8 | TTTTTTCAGCATGCTGATGCTTTTTTTTTTTTTTTGTACA [ACATG] | 0.528 ± 0.0051 | 0.399 ± 0.019
9 | TTTTTTGATCATGCTGATGCTTTTTTTTTTTTTTTCGACA [ACAGC] | 0.512 ± 0.028 | 0.429 ± 0.053
10 | TTTTTTGCGCAGCATCATGCTTTTTTTTTTTTTTTATTGA [AGTTA] | 0.643 ± 0.018 | 0.555 ± 0.03
11 | TTTTTTGCTGCTGATGCGCATTTTTTTTTTTTTTTAACAT [TACAA] | 0.529 ± 0.035 | 0.374 ± 0.021
12 | TTTTTGCAGCAGCATGCTGCTTTTTTTTTTTTTTTTTTAA [AATTT] | 0.569 ± 0.036 | 0.439 ± 0.024
13 | TTTTTTGAGCATGCTCATGATTTTTTTTTTTTTTTCTAGC [CGATC] | 0.508 ± 0.033 | 0.407 ± 0.04
14 | TTTTTTCATGATGATGCTGCTTTTTTTTTTTTTTTGCCAA [AACCG] | 0.504 ± 0.034 | 0.427 ± 0.041
15 | TTTTTTCATGCTGATGCGCATTTTTTTTTTTTTTTGACAT [TACAG] | 0.536 ± 0.019 | 0.388 ± 0.025
16 | TTTTTTGATGATCATCAGCATTTTTTTTTTTTTTTCCGGT [TGGCC] | 0.729 ± 0.028 | 0.624 ± 0.064
17 | TTTTTTCATCAGCATCATGCTTTTTTTTTTTTTTTGGTGA [AGTGG] | 0.627 ± 0.026 | 0.555 ± 0.04
18 | TTTTTTGCGCAGCATGAGCATTTTTTTTTTTTTTTATTCT [TCTTA] | 0.45 ± 0.021 | 0.326 ± 0.021
19 | TTTTTTGCGCATCATCATCATTTTTTTTTTTTTTTATGGG [GGGTA] | 0.661 ± 0.035 | 0.548 ± 0.037
20 | TTTTTGCAGCATGCTGATGATTTTTTTTTTTTTTTTTACC [CCATT] | 0.388 ± 0.019 | 0.286 ± 0.017
21 | TTTTTTCATGATGCTCATGATTTTTTTTTTTTTTTGCAGC [CGACG] | 0.508 ± 0.0059 | 0.402 ± 0.045
22 | TTTTTTGATGATGCTGCGCATTTTTTTTTTTTTTTCCAAT [TAACC] | 0.527 ± 0.017 | 0.394 ± 0.022
23 | TTTTTTGCTGATGCTCATGCTTTTTTTTTTTTTTTACAGA [AGACA] | 0.615 ± 0.02 | 0.459 ± 0.036
24 | TTTTTTGAGCATGCTCATCATTTTTTTTTTTTTTTCTAGG [GGATC] | 0.647 ± 0.019 | 0.507 ± 0.036
25 | TTTTTTCATGATGCGCAGCATTTTTTTTTTTTTTTGCATT [TTACG] | 0.514 ± 0.018 | 0.395 ± 0.019
26 | TTTTTGCATGATCATCATGATTTTTTTTTTTTTTTTCGGC [CGGCT] | 0.546 ± 0.031 | 0.47 ± 0.042
27 | TTTTTTCAGCAGCAGCATGCTTTTTTTTTTTTTTTGTTTA [ATTTG] | 0.521 ± 0.027 | 0.403 ± 0.022
28 | TTTTTTGATGCGCAGCATGATTTTTTTTTTTTTTTCATTC [CTTAC] | 0.398 ± 0.017 | 0.297 ± 0.021
